Experimental findings from patent publication US20250152742A1, “COMPOSITIONS AND METHODS FOR NEUROLOGICAL DISEASES” (Trames Bio, Inc., priority 2022, published 2025) are described below.

Substitutions are numbered along the chain they refer to.

The subject of the assay is rat DRG neurons. Kind of assay: Rheobase shift / evoked action potentials, rat DRG neurons (current clamp). In kind it is cell-based. As to conditions: for Rheobase Shift; Rat DRG Neurons, Baseline: no ligand, neurons expressing the receptor; for Rheobase Shift; Rat DRG Neurons, +TC-5619 @ EC90: ligand TC-5619 at EC90. Here is the method: Using whole cell manual patch clamp electrophysiology in HEK293 cells, rat DRG neurons and rat hippocampal neurons, the EC50 of the various engineered receptors disclosed herein to Ach and non-native ligands was measured using the Hill equation with peak current measurements from escalating doses of ligand. The rheobase shift was also measured in rat DRG neurons, which reflects the efficacy of the receptors. To calculate the rheobase, first, the amount of current that can produce an action potential was determined. Then the ligand was added, followed by a step wise increase in the current injected up to 700 pA.
DRG rheobase experiments were performed in current clamp mode using a potassium-based internal solution containing: 100 mM potassium D-gluconate, 28 mM potassium chloride, 1 mM magnesium chloride hexahydrate, 5 mM magnesium ATP, 10 mM HEPES, and 0.5 mM EGTA (pH=7.2 with potassium hydroxide, osmolarity=290-295 mOsm, calculated liquid junction potential=−13.5 mV). To measure DRG input resistance and rheobase, 500 ms current steps (−200 pA to 700 pA) were applied the membrane in the presence and absence of a compound. No holding current was applied to the membrane for cells included in the final datasets. Data were acquired at 10 kHz, with Bessel filter at 2 kHz and series resistance compensation at 100%. Rheobase was defined as the smallest depolarizing current injection required to cause an action potential to fire in the cell. In a subset of cells, the rheobase was ambiguous, since the action potential appeared to be graded in amplitude. In these cases, a […] of the trace clarified the rheobase. Input resistance was measured from the negative current injections, calculated as the difference in membrane potential at steady state divided by the current injection amplitude and then averaged across the four negative current steps for each recording. Resting membrane potential was measured from the first 100 ms of each sweep, averaged for each recording, and corrected for liquid junction potential. One-way ANOVA with multiple comparisons was used to test for significance of difference in rheobase and input resistance between baseline, drug, and wash conditions.
DRG neurons: DRG rheobase experiments were performed in current clamp mode using a potassium-based internal solution containing (in mM): 100 potassium D-gluconate (G4500), 28 potassium chloride (P9333), 1 magnesium chloride hexahydrate (M2670), 5 magnesium ATP (A9187), 10 HEPES (54457), and 0.5 EGTA (3777) (pH=7.2 with potassium hydroxide, osmolarity=290-295 mOsm, calculated liquid junction potential=−13.5 mV). To measure DRG input resistance and rheobase, 500 ms current steps (−200 pA to 700 pA) were applied the membrane (−400 pA to 700 pA in an early version of the protocol) in the presence and absence of a compound. No holding current was applied to the membrane for cells included in the final datasets. Data were acquired at 10 kHz, with Bessel filter at 2 kHz and series resistance compensation at 100%. Rheobase was defined as the smallest depolarizing current injection required to cause an action potential to fire in the cell. In a subset of cells, the rheobase was ambiguous, since the action potential appeared to be graded in amplitude. In these cases, a […] of the trace clarified the rheobase. Input resistance was measured from the negative current injections, calculated as the difference in membrane potential at steady state divided by the current injection amplitude and then averaged across the four negative current steps for each recording. Resting membrane potential was measured from the first 100 ms of each sweep, averaged for each recording, and corrected for liquid junction potential. One-way ANOVA with multiple comparisons was used to test for significance of difference in rheobase and input resistance between baseline, drug, and wash conditions.

B1: COAD1056 (protein)
chain: MRCSPGGVWLALAASLLHVSLQGEFQRKLYKELVKNYNPLERPVANDSQPLTVYFSLSLLQIMDVDEKNQVLTTNIWLQMSWTDHYLQWNVSEYPGVKTVFFPDGQIWKPDILLENSADERFDATFHTNVLVNSSGHCQYLPPGIFKSSCPMDLKNFPMDVQTCKLKFGSWSYGGWSLDLQMQEADISGYIPNGEWDLVGIPGKRSERFWECCKEPYPDVTFTVTMRRRMGYYLIQMYIPSLLIVILSWISFWINMDAAPARVGLGITTVLTMTTQSSGSRASLPKVSYVKAIDIWMAVCLLFVFSALLEYAAVNFVSRQHKELLRFRRKRRHHKSPMLNLFQEDEAGEGRFNFSAYGMGPACLQAKDGISVKGANNSNTTNPPPAPSKSPEEMRKLFIQRAKKIDKISRIGFPMAFLIFNMFYWIIYKIVRREDVHNQ
modifications: synthetic sequence of chimeric LGIC
As for B1, the “Rheobase Shift; Rat DRG Neurons, Baseline” value is listed as 114 ± 12 pA and the “Rheobase Shift; Rat DRG Neurons, +TC-5619 @ EC90” value was determined as 632 ± 43 pA.

B2: COAD1055 (protein)
chain: B1 chain with F101W
modifications: synthetic sequence of chimeric LGIC
B2: the “Rheobase Shift; Rat DRG Neurons, Baseline” value worked out at 83 ± 7 pA and the “Rheobase Shift; Rat DRG Neurons, +TC-5619 @ EC90” value is 562 ± 35 pA.
